Results on twelve molecules are retold here after US20210380703A1.

Positions count from the first letter of the chain named.

B1: 369_F08 (antibody, V domains shown)
VH: EVQLLESGGGLVQPGGSLRLSCAASGFTFSDYGMHWVRQAPGKGLEWVSGINYNSGYTSYADSVKGRFTISRDNSKNTLYLQMNSLRAEDTAVYYCARGANWHDTALDYWGQGTLVTVSS
VL: DIQMTQSPSSLSASVGDRVTITCRASQSILSYLNWYQQKPGKAPKLLIYAASSLQSGVPSRFSGSGSGTDFTLTISSLQPEDFATYYCQQSYDLPLTFGGGTKVEIK
B2: 369_A03 (antibody, V domains shown)
VH: B1 VH with D31S, H35N, G50N, S55G, S59G, G99S
VL: B1 VL with S31T, A51V, S52T, L54R, Q55H, S91G
B3: 370_C04 (antibody, V domains shown)
VH: B1 VH with D31S, H35N, S49A, G50S, G99S, N101T, A106H
VL: B1 VL with D93E, L94N
B4: 371_C09 (antibody, V domains shown)
VH: B1 VH with S30D, D31S, G33S, H35N, S55G, T58K, G99S, N101T, A106H
VL: B1 VL with S31T, L33V, L94N
B5: 374_H08 (antibody, V domains shown)
VH: B1 VH with S30D, D31S, G33S, H35N, S55G, S59G, G99S, N101T, A106H
VL: B1 VL with S52T, Q55H, D93E, L94N
B6: 369_B12 (antibody, V domains shown)
VH: B1 VH with S30D, D31S, G33S, H35N, S55G, T58K, G99S, N101T, A106H
VL: B1 VL with S31T, L33V, A51T, S52T, Q55A, L94S
B7: 374_E09 (antibody, V domains shown)
VH: B1 VH with G33S, H35N, S55G, T58K, S59G, G99S, N101T, A106H
VL: B1 VL with L30V, S31T, L47V, S52T, L54R, Q55A, L94S
B8: 365_C09 (antibody, V domains shown)
VH: B1 VH with H35N, S55G, T58K, G99S, N101T, A106H
VL: B1 VL with L30V, L33V, S52T, L54R, Q55A, L94T
B9: 374_C02 (antibody, V domains shown)
VH: B1 VH with S30D, D31S, G33S, H35N, S55G, S59G, G99S, N101T, A106H
VL: B1 VL with S52T, L54R, Q55H, L94S
B10: 369_B02 (antibody, V domains shown)
VH: B1 VH with S30D, D31S, G33S, H35N, S55G, T58K, G99S, N101T, A106H
VL: B1 VL with L47V, S52T, L54R, Q55A, D93N
B11: 374_D12 (antibody, V domains shown)
VH: B1 VH with S30D, D31S, G33S, H35N, S55G, S59G, G99S, N101T, A106H
VL: B1 VL with L30V, L33V, L47V, S52T, L54R, Q55A
B12: 374_B09 (antibody, V domains shown)
VH: B1 VH with D31S, G33S, H35N, S55G, T58K, G99S, N101T, A106H
VL: B1 VL with L30V, S31R, L47V, S52T, Q55A, D93E

One assay deals with human ACVR2A (human) (UniProt P27037). Nature of the assay: ELISA. For orientation: ELISA stands for enzyme-linked immunosorbent assay.
Sequence of human ACVR2A (human) (P27037 20-135 limits assumed): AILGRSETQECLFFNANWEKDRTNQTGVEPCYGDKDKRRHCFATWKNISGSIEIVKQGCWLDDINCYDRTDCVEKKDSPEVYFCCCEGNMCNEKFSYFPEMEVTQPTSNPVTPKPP
Molecule B1 showed an optical density of 0.503 OD.

The target of the next assay is Mouse ACVR2A (mouse) (UniProt P27038). Nature of the assay: ELISA.
Sequence of Mouse ACVR2A (mouse) (P27038 20-135 limits assumed): as the sequence (P27037 20-135 limits assumed) above, with K20R, V73I counted along it
Regarding B2, the optical density came to 0.561 OD.
B1 gave an optical density of 0.589 OD.

A further assay has as its target Human Fc (human). Nature of the assay: ELISA, negative control.
Regarding B2, the optical density was found to be 0.347 OD.

The target of another assay is human Fc (human). Put plainly: ELISA, negative control.
In turn, B1 returned an optical density of 0.302 OD.

Another assay has as its target human Fc (human). Nature of the assay: ELISA; negative control.
B3 displayed an optical density of 0.334 OD.
Still for that read-out and setting: in the case of B4 it was 0.308 OD.
Still for that read-out and setting: in the case of B5 it was 0.199 OD.
Still for that read-out and setting: with B6 the figure was 0.4 OD; with B7, 0.162 OD; with B8, 0.266 OD.
The molecule B9 registered an optical density of 0.167 OD.
Take B10: the optical density is 0.456 OD.
Same read-out and setting: in the case of B11 it was 0.235 OD.
Still for that read-out and setting: with B12 the figure was 0.172 OD.
